According to article PMC9900802:

Target: LUC^N-MLO2^CT-LW/RR (A. thaliana)
Assay: split reporter

In the case of “LUC^C-CAM2 (pAMPAT-LUC^C) (from UniProt P0DH97 1-149) (natural protein)”, the luciferase activity (median) is reported as 4900 units/mm^2.
